# Assay results: publication PMC7491322, “Molecular basis for the distinct cellular functions of the Lsm1–7 and Lsm2–8 complexes”
# How the values were obtained:
# Lsm2-8 [1] = target: T1, Lsm2-8 (Schizosaccharomyces pombe, UniProt O94408;Q9Y7M4;O14352;O42978;Q9UUI1;O74499;O74483 …); assay: fluorescence polarization; FP: 100 mM NaCl, 20 mM Tris pH 8.2 (final ~8), 10 mM MgCl2, 1 mM TCEP, 1 mM Na azide, 0.1 mg/mL each tRNA, BSA and heparin; temperature not stated; 1 nM RNA final; Hill fixed at 1; conditions: protein: recombinant; tags: Lsm4 C-term strep-II; Lsm7 C-term His6; GST (Lsm3) and MBP (Lsm6) with TEV sites, TEV treated; copies: 1;1;1;1;1;1;1; label: 5'-FAM; single-stranded
# Lsm1-7 (Lsm5 N66A/N68A) = Lsm1-7 (Lsm5 N66A/N68A) (Schizosaccharomyces pombe, UniProt P87173;O94408;Q9Y7M4;O14352;O42978;Q9UUI1;O74499 …, N66A;N68A;Lsm5); assay: as above; conditions: protein: recombinant; tags: as P2; copies: 1;1;1;1;1;1;1; label: 5'-FAM; single-stranded
# Lsm1-7 [2] = target: T2, Lsm1-7 (Schizosaccharomyces pombe, UniProt P87173;O94408;Q9Y7M4;O14352;O42978;Q9UUI1;O74499 …); assay: as above; conditions: protein: recombinant; tags: Lsm4 C-term strep-II (as for Lsm2-8); Lsm7 untagged; GST (Lsm3) and MBP (Lsm6) with TEV sites, TEV treated; copies: 1;1;1;1;1;1;1; label: 5'-FAM; single-stranded
# Lsm1-7 [3] = target: T2, Lsm1-7; assay: as above; conditions: protein: recombinant, tags: Lsm4 C-term strep-II (as for Lsm2-8), Lsm7 untagged, GST (Lsm3) and MBP (Lsm6) with TEV sites, TEV treated, copies: 1;1;1;1;1;1;1, label: 5'-FAM
# Lsm1Δ56C-7 [4] = target: T3, Lsm1Δ56C-7 (Schizosaccharomyces pombe, UniProt P87173;O94408;Q9Y7M4;O14352;O42978;Q9UUI1;O74499 …); assay: as above; conditions: protein: recombinant, tags: as P2, copies: 1;1;1;1;1;1;1, label: 5'-FAM
# Lsm2-8 [5] = target: T1, Lsm2-8; assay: X-ray crystallography; 1.9 Å; FP: 100 mM NaCl, 20 mM Tris pH 8.2 (final ~8), 10 mM MgCl2, 1 mM TCEP, 1 mM Na azide, 0.1 mg/mL each tRNA, BSA and heparin; temperature not stated; 1 nM RNA final; Hill fixed at 1; conditions: protein: recombinant; tags: Lsm4 C-term strep-II; Lsm7 C-term His6; GST (Lsm3) and MBP (Lsm6) with TEV sites, TEV treated; copies: 1;1;1;1;1;1;1; single-stranded
# Lsm2-8 [6] = target: T1, Lsm2-8; assay: X-ray crystallography; 2.3 Å; FP: 100 mM NaCl, 20 mM Tris pH 8.2 (final ~8), 10 mM MgCl2, 1 mM TCEP, 1 mM Na azide, 0.1 mg/mL each tRNA, BSA and heparin; temperature not stated; 1 nM RNA final; Hill fixed at 1; conditions: protein: recombinant; tags: Lsm4 C-term strep-II; Lsm7 C-term His6; GST (Lsm3) and MBP (Lsm6) with TEV sites, TEV treated; copies: 1;1;1;1;1;1;1; single-stranded
# Lsm1Δ56C-7 [7] = target: T3, Lsm1Δ56C-7; assay: X-ray crystallography; 1.8 Å; FP: 100 mM NaCl, 20 mM Tris pH 8.2 (final ~8), 10 mM MgCl2, 1 mM TCEP, 1 mM Na azide, 0.1 mg/mL each tRNA, BSA and heparin; temperature not stated; 1 nM RNA final; Hill fixed at 1; conditions: protein: recombinant; tags: as P2; copies: 1;1;1;1;1;1;1; single-stranded
# Lsm1Δ56C-7 [8] = target: T3, Lsm1Δ56C-7; assay: X-ray crystallography; 2.1 Å; FP: 100 mM NaCl, 20 mM Tris pH 8.2 (final ~8), 10 mM MgCl2, 1 mM TCEP, 1 mM Na azide, 0.1 mg/mL each tRNA, BSA and heparin; temperature not stated; 1 nM RNA final; Hill fixed at 1; conditions: protein: recombinant; tags: as P2; copies: 1;1;1;1;1;1;1; single-stranded
# [9] = 5' hairpin, single-stranded 3' end
binder,measurement,setting,value
"ACCCAUUUUU (ssRNA, 2',3' cyclic phosphate) [U6 3' tail, 2',3' cyclic phosphate]",Kd,Lsm2-8 [1],26 nM
"ACCCAUUUUU (ssRNA) [U6 3' tail, 3'-OH]",Kd,Lsm2-8 [1],100 nM
"ACCCAUUUUU (ssRNA, 2',3' cyclic phosphate) [cyclic phosphate oligoU RNA (Lsm1-7 assays)]",binding signal,Lsm1-7 (Lsm5 N66A/N68A),~7 fold weaker than adenosine-terminated RNA
same,binding signal,Lsm1-7 [2],~14 fold weaker than N4
ACCCAUUUUUA (ssRNA) [3' monoadenylated oligoU RNA],binding result,Lsm2-8 [1],binds
"ACCCAUUUUU (ssRNA, 3' phosphate) [U6 3' tail, 3' phosphate]",Kd,Lsm2-8 [1],152 nM
UUUUUUUUUUUUUUU (ssRNA) [U15],binding result,Lsm1-7 [3]; single-stranded,binds
UUUUUUUUUUUUUUA (ssRNA) [U14A],binding result,Lsm1-7 [3]; single-stranded,binds
UUUUUUUUUUUUUAA (ssRNA) [U13AA],binding result,Lsm1-7 [3]; single-stranded,binds
AAAAAAAAAAAAAAA (ssRNA) [A15],binding result,Lsm1Δ56C-7 [4]; single-stranded,no binding
UUUUU (ssRNA) [UUUUU-3'-OH],binding result,Lsm2-8 [5],binds
CCCCCUUUUUA (ssRNA),Kd,Lsm1-7 [3]; single-stranded,29.7 nM
same,Kd,Lsm1Δ56C-7 [4]; single-stranded,13 nM
"UUUUU (ssRNA, 2',3' cyclic phosphate) [UUUUU>p]",binding result,Lsm2-8 [6],binds
UUUUUA (ssRNA),binding result,Lsm1Δ56C-7 [7],binds
AUUUUG (ssRNA),binding result,Lsm1Δ56C-7 [8],binds
UUUUUACCCCC (ssRNA),Kd,Lsm1-7 [3]; single-stranded,189 nM
same,Kd,Lsm1Δ56C-7 [4]; single-stranded,34 nM
GGCACUUCGGUGCCCCCCAUUUUA (structured_RNA) [5' stem-loop RNA with UUUUA site],Kd,Lsm1-7 [3]; [9],70 nM
same,Kd,Lsm1Δ56C-7 [4]; [9],32 nM
